Source: US20100196266A1 (published 2010)

How the values were obtained:
human CD22 on cells [1] = target: T1, human CD22 on cells (human, UniProt P20273 20-847); test: indirect FACS, FITC-GAH Fc, Namalwa cells; none 2.5
T1 construct: whole, on cells

human CD22 on cells [2] = target: T1, human CD22 on cells; test: indirect FACS, FITC-GAH Fc, SU-DHL-6 cells; none 4.6
human CD22 on cells [3] = target: T1, human CD22 on cells; test: indirect FACS, FITC-GAH Fc, WSU-FSCCL cells; none 2.6
human CD22 on cells [4] = target: T1, human CD22 on cells; test: indirect flow cytometry, Namalwa cells, FITC-GAH; none 2.52
human CD22 on cells [5] = target: T1, human CD22 on cells; test: indirect flow cytometry, FITC-GAH Fc, SU-DHL-6 cells; none 4.6
human CD20 on cells [6] = target: T2, human CD20 on cells (human, UniProt P11836 1-297); test: indirect FACS, FITC-GAH Fc, Raji cells; none 6.8
T2 construct: whole, on cells
T2 sequence (looked up): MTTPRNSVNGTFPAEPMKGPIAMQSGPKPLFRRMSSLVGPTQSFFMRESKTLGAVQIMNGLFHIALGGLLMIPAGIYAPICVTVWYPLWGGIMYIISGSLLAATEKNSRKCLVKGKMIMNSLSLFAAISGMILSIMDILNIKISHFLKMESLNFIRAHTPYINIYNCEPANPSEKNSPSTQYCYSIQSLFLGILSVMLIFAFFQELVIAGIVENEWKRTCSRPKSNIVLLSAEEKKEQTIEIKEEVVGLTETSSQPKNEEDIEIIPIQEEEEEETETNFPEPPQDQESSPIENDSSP

human CD20 on cells [7] = target: T2, human CD20 on cells; test: indirect FACS, FITC-GAH Fc, Daudi cells; none 3.1
human CD20 on cells [8] = target: T2, human CD20 on cells; test: indirect FACS, FITC-GAH Fc, Ramos cells; none 3.1
human CD20 on cells [9] = target: T2, human CD20 on cells; test: indirect FACS, FITC-GAH Fc, Namalwa cells; none 2.5
human CD20 on cells [10] = target: T2, human CD20 on cells; test: indirect FACS, FITC-GAH Fc, SU-DHL-6 cells; none 4.6
human CD20 on cells [11] = target: T2, human CD20 on cells; test: indirect FACS, FITC-GAH Fc, WSU-FSCCL cells; none 2.6
human CD20 on cells [12] = target: T2, human CD20 on cells; test: indirect flow cytometry, FITC-GAH Fc, RL cells; none 2.4
human CD20 on cells [13] = target: T2, human CD20 on cells; test: indirect flow cytometry, FITC-GAH Fc, Raji cells; none 6.9
human CD20 on cells [14] = target: T2, human CD20 on cells; test: indirect flow cytometry, Namalwa cells, FITC-GAH; none 2.52
human CD20 on cells [15] = target: T2, human CD20 on cells; test: indirect flow cytometry, FITC-GAH Fc, Daudi cells; none 3.2
human CD20 on cells [16] = target: T2, human CD20 on cells; test: indirect flow cytometry, FITC-GAH Fc, Ramos cells; none 3.1
human CD20 on cells [17] = target: T2, human CD20 on cells; test: indirect flow cytometry, FITC-GAH Fc, Namalwa cells; none 2.6
human CD20 on cells [18] = target: T2, human CD20 on cells; test: indirect flow cytometry, FITC-GAH Fc, SU-DHL-6 cells; none 4.6
human CD20 on cells [19] = target: T2, human CD20 on cells; test: indirect flow cytometry, FITC-GAH Fc, WSU-FSCCL cells; none 2.7
human CD74 on cells [20] = target: T3, human CD74 on cells (human, UniProt P04233 1-296); test: indirect FACS, FITC-GAH Fc, Raji cells; none 6.8
T3 construct: whole, on cells
T3 sequence (looked up): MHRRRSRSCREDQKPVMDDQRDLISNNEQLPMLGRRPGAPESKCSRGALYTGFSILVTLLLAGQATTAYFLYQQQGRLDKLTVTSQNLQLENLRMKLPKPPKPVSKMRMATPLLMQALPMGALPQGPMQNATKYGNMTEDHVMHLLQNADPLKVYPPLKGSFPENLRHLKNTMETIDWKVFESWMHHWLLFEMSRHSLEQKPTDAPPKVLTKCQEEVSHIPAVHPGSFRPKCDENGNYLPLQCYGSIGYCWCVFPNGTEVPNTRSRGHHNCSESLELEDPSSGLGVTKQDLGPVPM

human CD74 on cells [21] = target: T3, human CD74 on cells; test: indirect FACS, FITC-GAH Fc, Daudi cells; none 3.1
human CD74 on cells [22] = target: T3, human CD74 on cells; test: indirect FACS, FITC-GAH Fc, Ramos cells; none 3.1
human CD74 on cells [23] = target: T3, human CD74 on cells; test: indirect FACS, FITC-GAH Fc, Namalwa cells; none 2.5
human CD74 on cells [24] = target: T3, human CD74 on cells; test: indirect FACS, FITC-GAH Fc, SU-DHL-6 cells; none 4.6
human CD74 on cells [25] = target: T3, human CD74 on cells; test: indirect FACS, FITC-GAH Fc, WSU-FSCCL cells; none 2.6
human CD74 on cells [26] = target: T3, human CD74 on cells; test: indirect flow cytometry, FITC-GAH Fc, RL cells; none 2.4
human CD74 on cells [27] = target: T3, human CD74 on cells; test: indirect flow cytometry, FITC-GAH Fc, Raji cells; none 6.9
human CD74 on cells [28] = target: T3, human CD74 on cells; test: indirect flow cytometry, Namalwa cells, FITC-GAH; none 2.52
human CD74 on cells [29] = target: T3, human CD74 on cells; test: indirect flow cytometry, FITC-GAH Fc, Daudi cells; none 3.2
human CD74 on cells [30] = target: T3, human CD74 on cells; test: indirect flow cytometry, FITC-GAH Fc, Ramos cells; none 3.1
human CD74 on cells [31] = target: T3, human CD74 on cells; test: indirect flow cytometry, FITC-GAH Fc, Namalwa cells; none 2.6
human CD74 on cells [32] = target: T3, human CD74 on cells; test: indirect flow cytometry, FITC-GAH Fc, SU-DHL-6 cells; none 4.6
human CD74 on cells [33] = target: T3, human CD74 on cells; test: indirect flow cytometry, FITC-GAH Fc, WSU-FSCCL cells; none 2.7

B1: epratuzumab (hLL2, humanized anti-CD22 mAb) (antibody, V domains shown)
VH: QVQLVQSGAEVKKPGSSVKVSCKASGYTFTSYWLHWVRQAPGQGLEWIGYINPRNDYTEYNQNFKDKATITADESTNTAYMELSSLRSEDTAFYFCARRDITTFYWGQGTTVTVSS
VL: DIQLTQSPSSLSASVGDRVTMSCKSSQSVLYSANHKNYLAWYQQKPGKAPKLLIYWASTRESGVPSRFSGSGSGTDFTFTISSLQPEDIATYYCHQYLSSWTFGGGTKLEIK
Human CD22 on cells [1]
  Geometric Mean Fluorescence: 6.4
Human CD22 on cells [2]
  Geometric Mean Fluorescence: 11
Human CD22 on cells [3]
  Geometric Mean Fluorescence: 4.1
Human CD22 on cells [4]
  GEO MEAN Fluorescence: 6.76
Human CD22 on cells [5]
  Geometric Mean Fluorescence: 11

B2: veltuzumab (hA20, humanized anti-CD20 mAb) (antibody, V domains shown)
VH: QVQLQQSGAEVKKPGSSVKVSCKASGYTFTSYNMHWVKQAPGQGLEWIGAIYPGMGDTSYNQKFKGKATLTADESTNTAYMELSSLRSEDTAFYYCARSTYYGGDWYFDVWGQGTTVTVSS
VL: DIQLTQSPSSLSASVGDRVTMTCRASSSVSYIHWFQQKPGKAPKPWIYATSNLASGVPVRFSGSGSGTDYTFTISSLQPEDIATYYCQQWTSNPPTFGGGTKLEIK
Human CD20 on cells [6]
  Geometric Mean Fluorescence: 267
Human CD20 on cells [7]
  Geometric Mean Fluorescence: 241
Human CD20 on cells [8]
  Geometric Mean Fluorescence: 204
Human CD20 on cells [9]
  Geometric Mean Fluorescence: 10.1
Human CD20 on cells [10]
  Geometric Mean Fluorescence: 1200
Human CD20 on cells [11]
  Geometric Mean Fluorescence: 8.91
Human CD20 on cells [12]
  Geometric Mean Fluorescence: 128
Human CD20 on cells [13]
  Geometric Mean Fluorescence: 267
Human CD20 on cells [14]
  GEO MEAN Fluorescence: 6.28
Human CD20 on cells [15]
  Geometric Mean Fluorescence: 241
Human CD20 on cells [16]
  Geometric Mean Fluorescence: 204
Human CD20 on cells [17]
  Geometric Mean Fluorescence: 10.1
Human CD20 on cells [18]
  Geometric Mean Fluorescence: 1200
Human CD20 on cells [19]
  Geometric Mean Fluorescence: 8.9

B3: milatuzumab (hLL1, humanized anti-CD74 mAb) (antibody, V domains shown)
VH: QVQLQQSGSELKKPGASVKVSCKASGYTFTNYGVNWIKQAPGQGLQWMGWINPNTGEPTFDDDFKGRFAFSLDTSVSTAYLQISSLKADDTAVYFCSRSRGKNEAWFAYWGQGTLVTVSS
VL: DIQLTQSPLSLPVTLGQPASISCRSSQSLVHRNGNTYLHWFQQRPGQSPRLLIYTVSNRFSGVPDRFSGSGSGTDFTLKISRVEAEDVGVYFCSQSSHVPPTFGAGTRLEIK
Human CD74 on cells [20]
  Geometric Mean Fluorescence: 95.1
Human CD74 on cells [21]
  Geometric Mean Fluorescence: 48.8
Human CD74 on cells [22]
  Geometric Mean Fluorescence: 23.2
Human CD74 on cells [23]
  Geometric Mean Fluorescence: 7.81
Human CD74 on cells [24]
  Geometric Mean Fluorescence: 17.3
Human CD74 on cells [25]
  Geometric Mean Fluorescence: 8.66
Human CD74 on cells [26]
  Geometric Mean Fluorescence: 7.9
Human CD74 on cells [27]
  Geometric Mean Fluorescence: 95.1
Human CD74 on cells [28]
  GEO MEAN Fluorescence: 10.1
Human CD74 on cells [29]
  Geometric Mean Fluorescence: 48.8
Human CD74 on cells [30]
  Geometric Mean Fluorescence: 23.3
Human CD74 on cells [31]
  Geometric Mean Fluorescence: 7.8
Human CD74 on cells [32]
  Geometric Mean Fluorescence: 17.3
Human CD74 on cells [33]
  Geometric Mean Fluorescence: 8.7
